Where a chain is given by its changes, count along the chain named. Where two headings read alike, the source gives them in different places.
Assays:
Experiment in all cases: EMSA
Pax7 HD = Pax7 HD (mouse (Mus musculus), UniProt P47239 215-273)
Pax7 PD-HD [1] = target: T1, Pax7 PD-HD (mouse (Mus musculus), UniProt P47239 35-273)
Pax7 PD-HD homodimer = Pax7 PD-HD homodimer (mouse (Mus musculus), UniProt P47239 35-273)
Pax7 PD-HD [2] = target: T1, Pax7 PD-HD; remark: listed apart in the source
Pax7 PD-HD [3] = target: T1, Pax7 PD-HD; remark: listed apart in the source
Pax7 PD = Pax7 PD (mouse (Mus musculus), UniProt P47239 35-158)
Pax7 PD-L = Pax7 PD-L (mouse (Mus musculus), UniProt P47239 35-215)
Pax7 PD-HD [4] = target: T1, Pax7 PD-HD; remark: listed apart in the source

T1 sequence (P47239 35-273): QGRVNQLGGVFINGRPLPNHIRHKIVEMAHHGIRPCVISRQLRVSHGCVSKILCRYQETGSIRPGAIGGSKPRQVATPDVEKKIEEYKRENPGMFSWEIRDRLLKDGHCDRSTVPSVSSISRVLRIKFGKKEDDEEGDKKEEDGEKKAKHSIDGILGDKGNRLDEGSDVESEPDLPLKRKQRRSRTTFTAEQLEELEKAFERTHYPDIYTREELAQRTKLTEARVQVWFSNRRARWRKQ
Chain of Pax7 HD (P47239 215-273): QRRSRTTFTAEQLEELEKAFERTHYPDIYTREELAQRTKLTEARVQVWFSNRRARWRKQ
Chain of Pax7 PD (P47239 35-158): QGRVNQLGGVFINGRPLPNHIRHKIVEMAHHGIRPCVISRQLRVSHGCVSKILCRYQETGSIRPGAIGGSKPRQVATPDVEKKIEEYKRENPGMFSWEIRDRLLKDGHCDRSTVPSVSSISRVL
Chain of Pax7 PD-HD homodimer (P47239 35-273): as the sequence (P47239 35-273) above
Chain of Pax7 PD-L (P47239 35-215): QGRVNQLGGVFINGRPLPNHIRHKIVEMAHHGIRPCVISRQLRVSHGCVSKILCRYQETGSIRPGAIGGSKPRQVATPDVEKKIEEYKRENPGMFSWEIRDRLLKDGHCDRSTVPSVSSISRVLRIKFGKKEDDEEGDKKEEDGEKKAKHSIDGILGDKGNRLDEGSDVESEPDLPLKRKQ

B1: HD (mutated PD) (dsDNA)
DNA 1: TCGACGCAGATCGTCCGCTAATTCCAACGACCTCGA
DNA 2: TCGAGGTCGTTGGAATTAGCGGACGATCTGCGTCGA
B1: no binding (Pax7 HD).

B2: H.I2 (dsDNA)
DNA 1: TCGACTCGTCCGCTAATTGATTATCCAACGACCTCGA
DNA 2: TCGAGGTCGTTGGATAATCAATTAGCGGACGAGTCGA
B2: binds (Pax7 PD-HD [1]); binds (Pax7 HD); binds (Pax7 PD-HD homodimer).

B3: H.I-2 (dsDNA)
DNA 1: TCGACCAGATCGTCCGCTAATTACCAACGACCTCGA
DNA 2: TCGAGGTCGTTGGTAATTAGCGGACGATCTGGTCGA
B3: no binding (Pax7 HD); binds (Pax7 PD-HD [2]).

B4: PD (mutated HD) (dsDNA)
DNA 1: TCGACGCAGATCCGTGACGCCAGTTCCGACCTCGA
DNA 2: TCGAGGTCGGAACTGGCGTCACGGATCTGCGTCGA
B4: binds (Pax7 PD-HD [3]); binds (Pax7 PD); binds (Pax7 PD-L).

B5: Composite HP.E0 (dsDNA)
DNA 1: B4 DNA 1 with G19T, C20A, C21A, A22T
DNA 2: B4 DNA 2 with T14A, G15T, G16T, C17A
B5: binds (Pax7 PD-HD [4]); binds (Pax7 PD).
